Test results published in US8637237.

Biological target: mouse RXRα (mRXRα) (mouse) (UniProt P28700)
Assay: cell-based or functional assay

- GGF-dependent transcriptional induction by farnesol (40 µM), FIG. 16D: 2 fold
Substance: GGF (human glucocorticoid receptor amino terminus and DBD linked to the carboxyl terminus (LBD) of FXR) (from UniProt P04150 1-509; Q62735 188-469)
